T1: HMunc18c (His6-tagged full-length mouse Munc18c from a codon-optimised synthetic gene in pQE30) (mouse, UniProt Q60770 1-592)
T1 construct: Monomer by SEC-MALS; also called pQE30-His6-Munc18c; bacterially expressed Munc18c; source: E. coli BL21, co-expressed with GroEL/GroES, purified (IMAC PrepEase, SEC, MonoS IEC); not shown: His6, N-terminal, kept
T1 sequence (looked up): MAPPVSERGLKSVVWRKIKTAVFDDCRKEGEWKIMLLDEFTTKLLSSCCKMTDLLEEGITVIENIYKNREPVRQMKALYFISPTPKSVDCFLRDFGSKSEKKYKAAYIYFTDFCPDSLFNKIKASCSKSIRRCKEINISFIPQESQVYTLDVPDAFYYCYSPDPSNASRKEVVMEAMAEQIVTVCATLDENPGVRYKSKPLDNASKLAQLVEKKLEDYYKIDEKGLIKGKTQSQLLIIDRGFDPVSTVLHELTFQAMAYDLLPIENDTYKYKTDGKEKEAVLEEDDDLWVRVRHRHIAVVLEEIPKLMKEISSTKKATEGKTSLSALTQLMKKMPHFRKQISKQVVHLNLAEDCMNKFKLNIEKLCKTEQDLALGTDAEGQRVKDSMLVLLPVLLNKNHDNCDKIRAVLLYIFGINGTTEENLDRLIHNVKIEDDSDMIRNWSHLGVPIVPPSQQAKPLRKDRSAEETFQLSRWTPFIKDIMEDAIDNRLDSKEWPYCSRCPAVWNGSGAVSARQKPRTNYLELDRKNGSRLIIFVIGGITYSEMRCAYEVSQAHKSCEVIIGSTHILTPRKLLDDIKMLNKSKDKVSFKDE

B1: Sx4(1-275)-His (C-terminally His6-tagged Syntaxin4 C141S, residues 1-275) (domain or fragment, UniProt P70452 1-275, looked up)
chain: MRDRTHELRQGDNISDDEDEVRVALVVHSGAARLGSPDDEFFQKVQTIRQTMAKLESKVRELEKQQVTILATPLPEESMKQGLQNLREEIKQLGREVRAQLKAIEPQKEEADENYNSVNTRMKKTQHGVLSQQFVELINKSNSMQSEYREKNVERIRRQLKITNAGMVSDEELEQMLDSGQSEVFVSNILKDTQVTRQALNEISARHSEIQQLERSIRELHEIFTFLATEVEMQGEMINRIEKNILSSADYVERGQEHVKIALENQKKARKKKVM
notes: source: also in lysate for the co-purification; not shown: His6, C-terminal, kept
B2: Munc18c (un-tagged) (natural protein, mouse, UniProt Q60770 1-592, looked up)
chain: T1 sequence (looked up)
notes: made from pQE30-HMunc18c by PCR that removes the His6 codons; A few vector-encoded residues may be left at the N-terminus (surmised); also called untagged Munc18c; un-tagged Munc18c

How the values were obtained:
[1] = target: T1, HMunc18c (His6-tagged full-length mouse …); experiment: ITC; 298 K, iTC200; Sx4(1-275)-His 200-220 µM titrated into 20-30 µM HMunc18c in the cell; 25 mM HEPES pH 8, 200 mM NaCl, 10% glycerol, 2 mM β-ME; single site model; four replicates, mean ± SEM; details: both partners purified
[2] = target: B1; experiment: pull-down + SEC; lysates of un-tagged Munc18c and Sx4(1-275)-His mixed 3:1 by volume, captured on TALON beads, eluted, Superdex 200 in 25 mM Tris-HCl pH 7.5, 300 mM NaCl, 10% glycerol; peak fractions on SDS-PAGE; details: partners not purified

Binder | Kd [1] [nM] | dH [1] [kcal/mol] | stoichiometry N [1] | stoichiometry N [2]
B1 | 104 | -11 | 0.97 | –
B2 | – | – | – | 1

— PMC3877047 (PLoS ONE, 2013)
